Ki data for 1 molecule are collected here from PMC5910447, “Efficient production of secretory Streptomyces clavuligerus β-lactamase inhibitory protein (BLIP) in Pichia pastoris” (AMB Express, 2018).

The Ki is the dissociation constant of the complex between target and ligand, obtained from inhibition or displacement.

The experiment has as its target T1, TEM-1 β-lactamase (UniProt P62593 24-286).
T1 construct: TEM-1 β-lactamase (class A); whether the construct carries a tag or its signal peptide is not known; also called TEM-1 enzyme; source: E. coli haboring pRSET-K/TEM-1 β-lactamase (lab stock); production procedure in Additional file 1: Methods
Kind of experiment: enzyme inhibition assay (nitrocefin hydrolysis, free β-lactamase against inhibitor concentration); 1.5 nM TEM-1 β-lactamase pre-incubated with 0–15 nM BLIP in 50 mM sodium phosphate buffer with 1 mg/mL bovine serum albumin for 2 h at 25 °C; then 21 μM nitrocefin, absorbance at 500 nm; nonlinear fit to Eq. 1; Ki* (equilibrium dissociation constant) equivalent to Ki.

T1 sequence (P62593 24-286): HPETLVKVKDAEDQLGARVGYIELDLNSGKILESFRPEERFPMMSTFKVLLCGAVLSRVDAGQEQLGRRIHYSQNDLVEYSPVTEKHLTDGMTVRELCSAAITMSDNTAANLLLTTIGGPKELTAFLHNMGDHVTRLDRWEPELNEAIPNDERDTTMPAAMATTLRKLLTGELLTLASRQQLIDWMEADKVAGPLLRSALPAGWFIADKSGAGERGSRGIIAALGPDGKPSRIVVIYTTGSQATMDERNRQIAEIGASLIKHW

B1: β-Lactamase inhibitory protein (BLIP), recombinant, secreted by P. pastoris (EAEAEF-mature BLIP) (natural protein, Streptomyces clavuligerus)
chain: EAEAEFAGVMTGAKFTQIQFGMTRQQVLDIAGAENCETGGSFGDSIHCRGHAAGDYYAYATFGFTSAAADAKVDSKSQEKLLAPSAPTLTLAKFNQVTVGMTRAQVLATVGQGSCTTWSEYYPAYPSTAGVTLSLSCFDVDGYSSTGFYRGSAHLWFTDGVLQGKRQWDLV
notes: peptide left at the N-terminus after Kex2 cleavage of the α-factor mating signal; the blip gene's own terminator was kept, so no C-terminal vector tags are expected (calculated mass 18,219.25 matches EAEAEF-mature BLIP); also called recombinant BLIP; P. pastoris-expressed BLIP; source: P. pastoris X-33 (pPICZαA/BLIP, methanol induction), secreted; recovered from the culture supernatant without …
Regarding B1, the Ki was 0.55 ± 0.07 nM.
